Measurements taken from paper PMC9711875.

Molecular target: CD177 (UniProt Q8N6Q3)
Test: SPR; Biacore T200; CD177 amine coupled to a CM5 chip (about 770 counts for kinetic measurements); PR3 or AAT as soluble analytes in 10 mM HEPES, 150 mM NaCl, 0.05% Tween20; 30 μL/minute; 25°C

Kd: 20 nM
B1: purified proteinase 3 (enzyme)
chain: IVGGHEAQPHSRPYMASLQMRGNPGSHFCGGTLIHPSFVLTAAHCLRDIPQRLVNVVLGAHNVRTQEPTQQHFSVAQVFLNNYDAENKLNDVLLIQLSSPANLSASVATVQLPQQDQPVPHGTQCLAMGWGRVGAHDPPAQVLQELNVTVVTFFCRPHNICTFVPRRKAGICFGDSGGPLICDGIIQGIDSFVIWGCATRLFPDFFTRVALYVDWIRSTLR
